Laboratory results taken from patent US20240294638A1 (LES LABORATOIRES SERVIER, published 2024).

T1: CD94 homodimer (human, UniProt Q13241 32-179, limits assumed)
T1 sequence (looked up): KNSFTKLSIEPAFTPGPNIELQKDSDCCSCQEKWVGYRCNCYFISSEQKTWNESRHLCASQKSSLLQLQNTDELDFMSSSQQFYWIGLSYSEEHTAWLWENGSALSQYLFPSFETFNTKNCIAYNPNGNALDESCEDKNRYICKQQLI


Tests used:
[1] = biological target: T2, I225M (Homo sapiens); experiment: flow cytometry, CHO-S cells transiently transfected with NKG2A variant and CD94, AF647 goat anti-human IgG secondary (MFI) [cont.), panel 23925]
T2 construct: co-expressed on CHO-S cells; also called human NKG2A I225M / human CD94 heterodimer on CHO-S cells
Protocol: (§1) Six anti-human NKG2A antibodies were tested for binding to the different heterodimers expressed. Antibodies were tested for binding to the transfected cells in 3-fold serial dilutions from 1 μg/mL antibody, and 0 μg/ml antibody, and incubated for 30 min at 4° C. Following a washing step, the cells were incubated with a fluorescent goat anti-human IgG (H+L) secondary antibody (A-21445, Invitrogen) for 30 min at 4° C. in the dark. After a second wash, the cells were tested by high throughput flow cytometry (IQue screener, Sartorius). Data were transferred to Excel and graphs were generated using GraphPad Prism® software. A reference antibody analogue and an isotype control were included for comparison.

[2] = biological target: T3, human NKG2A and human CD94 expressed on transiently transfected CHO-S cells (human, UniProt Q13241 1-179); experiment: as above
T3 construct: whole, on cells; also called human NKG2A/CD94 heterodimer
Protocol: as §1

[3] = biological target: T3, human NKG2A and human CD94 expressed on …; experiment: flow cytometry, transiently transfected CHO-S cells, AF647 goat anti-human IgG secondary (MFI) [cont.), panel 23925]
Protocol: (§2) CHO-S cells were transiently transfected with human NKG2A and human CD94, human NKG2C and human CD94, cynomolgus NKG2A and cynomolgus CD94 or cynomolgus NKG2C and cynomolgus CD94 constructs. Mock transfected CHO-S cells were included in the assay as a negative control. Antibodies were tested for binding to the transfected cells in 3-fold dilutions from 30 μg/mL down to 0.5 ng/ml antibody, and 0 μg/mL antibody, and incubated for 30 min at 4° C. Following a washing step, the cells were incubated with a fluorescent goat anti-human IgG (H+L) secondary antibody (A-21445, Invitrogen) for 30 min at 4° C. in the dark. After a second wash, the cells were tested by high throughput flow cytometry (IQue screener, Sartorius). Data were transferred to Excel and graphs were generated using GraphPad Prism® software.

[4] = biological target: T4, recombinant human NKG2C/CD94 heterodimer (extracellular domains) (human, UniProt P26717 94-231; Q13241 32-179); experiment: SPR (IBIS MX96), mAb captured on anti-human IgG Fc, ECD heterodimer injected, 1:1 fit
T4 construct: extracellular domain; also called HuNKG2C/huCD94; NKG2C/CD94 ECDs
Protocol: (§3) Kinetic binding analysis of anti-NKG2A monoclonal antibodies (mAbs) was performed by Surface Plasmon Resonance (SPR) using a Continuous Flow Microspotter (CFM, Wasatch Microfluidics, Salt Lake City, US) combined with an IBIS MX96 SPR instrument (IBIS Technologies, The Netherlands). The extracellular domains (ECDs) of human his-tagged NKG2A, NKG2C and FLAG-tagged CD94 were co-expressed using an Expi293™ expression system and purified by standard Ni-NTA chromatography followed by anti-Flag M2 affinity gel (A2220, Sigma). Binding kinetics were measured by capturing mAbs on a G-a-hu-IgG Fc SensEye® for 15 minutes using the CFM. After spotting, the SensEye® was positioned in the IBIS MX96 biosensor and immobilized mAbs were fixed by SensEye FixIt kit. Kinetic analysis was performed by applying a kinetic titration series injecting increasing concentrations of antigens from 1.6 nM to 400 nM as 2-fold dilutions. After each cycle of antigen injection, the surface was regenerated by 100 mM H₃PO₄, pH 3. Antigen association and dissociation were measured for 15 minutes. The recorded binding responses were fitted to a simple 1:1 binding model with Scrubber 2.0 software for calculation of the on-rate (kₒₙ or kₐ), off-rate (Koff or kd) and affinity (KD) constants. Binding kinetic parameters were measured as an average of three independent measuring points.

[5] = biological target: T5, recombinant human NKG2A/CD94 heterodimer (extracellular domains) (human, UniProt Q13241 32-179); experiment: as above
T5 construct: extracellular domain; ECDs co-expressed in Expi293, purified by Ni-NTA and anti-Flag; also called HuNKG2A/huCD94; NKG2A/CD94 ECDs
Protocol: as §3

[6] = biological target: T1, CD94 homodimer; experiment: SPR
Protocol: as §3
The binding affinities and kinetic parameters of the anti-NKG2A mAbs binding to NKG2A/CD94 and NKG2C/CD94 heterodimers are shown in Table 7. […] None of the mAbs bound to CD94 homodimer (data not shown).

[7] = biological target: T6, cynomolgus NKG2A and cynomolgus CD94 expressed on transiently transfected CHO-S cells (cynomolgus, UniProt Q68VD2 1-233; Q68VD4 1-179); experiment: blocking of PE-conjugated HLA-E pentamer binding to transiently transfected CHO-S cells, flow cytometry (percentage binding) [panel B cNKG2A]
T6 construct: whole, on cells
Protocol: (§4) CHO-S cells were transiently transfected with constructs for expression of human NKG2A and human CD94, human NKG2C and human CD94, cynomolgus NKG2A and cynomolgus CD94, or cynomolgus NKG2C and cynomolgus CD94. Mock transfected CHO-S cells were included in the assay as negative control. A PE-conjugated HLA-E pentamer was tested for binding to the heterodimers in the presence of anti-human NKG2A antibodies in 3-fold serial dilutions from 10 μg/mL down to 14 ng/mL antibody, and 0 μg/mL antibody. The antibodies were allowed to bind for 30 min at 4° C. prior to the addition of the HLA-E pentamer in a 1:50 dilution. The fluorescence intensity of HLA-E binding to the transfected cells was measured by high throughput flow cytometry (IQue screener, Sartorius). Data were transferred to Excel and graphs were generated using GraphPad Prism® software.

[8] = biological target: T3, human NKG2A and human CD94 expressed on …; experiment: flow cytometry, CHO-S cells transiently transfected with NKG2A variant and CD94, AF647 goat anti-human IgG secondary (MFI) [panel 23566]
Protocol: as §1

[9] = biological target: T3, human NKG2A and human CD94 expressed on …; experiment: flow cytometry, transiently transfected CHO-S cells, AF647 goat anti-human IgG secondary (MFI) [panel 23566]
Protocol: as §2

[10] = biological target: T6, cynomolgus NKG2A and cynomolgus CD94 …; experiment: as above
Protocol: as §2

[11] = biological target: T7, human NKG2C and human CD94 expressed on transiently transfected CHO-S cells (human, UniProt P26717 1-231; Q13241 1-179); experiment: blocking of PE-conjugated HLA-E pentamer binding to transiently transfected CHO-S cells, flow cytometry (percentage binding) [cont.), panel C hNKG2C]
T7 construct: whole, on cells
Protocol: as §4

[12] = biological target: T3, human NKG2A and human CD94 expressed on …; experiment: flow cytometry, transiently transfected CHO-S cells, AF647 goat anti-human IgG secondary (MFI) [panel 23686]
Protocol: as §2

[13] = biological target: T7, human NKG2C and human CD94 expressed on …; experiment: as above
Protocol: as §2

[14] = biological target: T8, cynomolgus NKG2C and cynomolgus CD94 expressed on transiently transfected CHO-S cells (cynomolgus); experiment: as above
T8 construct: whole, on cells
Protocol: as §2

[15] = biological target: T6, cynomolgus NKG2A and cynomolgus CD94 …; experiment: as above
Protocol: as §2

[16] = biological target: T2, I225M; experiment: flow cytometry, CHO-S cells transiently transfected with NKG2A variant and CD94, AF647 goat anti-human IgG secondary (MFI) [panel 23686]
Protocol: as §1

[17] = biological target: T3, human NKG2A and human CD94 expressed on …; experiment: as above
Protocol: as §1

[18] = biological target: T7, human NKG2C and human CD94 expressed on …; experiment: as above
Protocol: as §1

[19] = biological target: T8, cynomolgus NKG2C and cynomolgus CD94 …; experiment: blocking of PE-conjugated HLA-E pentamer binding to transiently transfected CHO-S cells, flow cytometry (percentage binding) [cont.), panel D cNKG2C]
Protocol: as §4

T5 sequence (chain, as listed by the source, chain 1 of 2, one chain of several): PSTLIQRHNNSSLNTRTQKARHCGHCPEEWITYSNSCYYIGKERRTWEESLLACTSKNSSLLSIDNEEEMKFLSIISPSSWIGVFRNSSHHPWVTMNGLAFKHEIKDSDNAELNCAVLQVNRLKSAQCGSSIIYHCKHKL
T7 sequence (P26717 whole entry, one chain of several): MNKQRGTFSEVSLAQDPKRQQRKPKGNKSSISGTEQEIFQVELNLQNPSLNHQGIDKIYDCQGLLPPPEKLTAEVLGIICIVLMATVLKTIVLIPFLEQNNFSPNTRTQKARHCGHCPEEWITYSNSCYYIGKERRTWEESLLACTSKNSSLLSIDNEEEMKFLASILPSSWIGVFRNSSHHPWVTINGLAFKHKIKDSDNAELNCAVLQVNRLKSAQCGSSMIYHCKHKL
T4 sequence (P26717 94-231, chain 1 of 2, one chain of several): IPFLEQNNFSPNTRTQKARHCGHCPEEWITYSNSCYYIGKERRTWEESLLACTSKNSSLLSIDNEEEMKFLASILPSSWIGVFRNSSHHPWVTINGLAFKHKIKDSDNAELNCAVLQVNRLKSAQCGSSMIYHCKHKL
T2 sequence (P26715 whole entry I225M): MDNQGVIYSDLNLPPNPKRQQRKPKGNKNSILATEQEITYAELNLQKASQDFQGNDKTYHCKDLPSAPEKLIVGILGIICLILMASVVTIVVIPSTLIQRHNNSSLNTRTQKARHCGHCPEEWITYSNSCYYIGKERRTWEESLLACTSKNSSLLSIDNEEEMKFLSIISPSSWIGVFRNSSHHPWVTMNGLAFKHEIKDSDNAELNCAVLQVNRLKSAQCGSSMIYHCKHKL

Kd [4] [nM] | koff [4] [s⁻¹] | kon [4] [M⁻¹ s⁻¹] | Kd [5] [nM] | koff [5] [s⁻¹] | kon [5] [M⁻¹ s⁻¹] | binding result [6] | Binder | other results
68 | 0.0006 | 8800 | 2.23 | 0.00042 | 190000 | no binding | antibody 23925 (antibody, human IgG1, kappa, L234A L235A, V domains shown, Fully human IgG1-LALA (L234A/L235A), kappa) VH: EVQLVESGGGLVQPGGSLRLSCAASGFTFSSYAMNWVRQAPGKGLEWVSTISNSGGTTYYADSVKGRFTISRDNSKDTLYLQMNSLRAEDTAVYYCAKAHYYARGYFDYWGQGTLVTVSS VL: DIQMTQSPSSVSASVGDRVTITCRASQGISSWLAWYQQKSGKAPKLLIYAASSLQIGVPSRFSGSGSGTDFTLTISSLQPEDFATYYCQQANSFPYTFGQGTKLEIKR | EC50 (read off the curve) [1]: ~0.003 µg/mL; EC50 (read off the curve) [2]: ~0.004 µg/mL; EC50 (read off the curve) [3]: ~0.02 µg/mL; binding result [7]: no binding (tested: 10000 ng/ml)
98 | 0.00083 | 8500 | 2.5 | 0.0011 | 420000 | no binding | antibody 23566 (antibody, human IgG1, kappa, L234A L235A, V domains shown, Fully human IgG1-LALA (L234A/L235A), kappa; also called mAb 23566) VH: EVQLLESGGDLVQPGGSLRLSCAASGFTFDNYAMHWVRQAPGKGLEWVSTITNSGGTTYYADSVKGRFTLSRDNSKNTLYLQMNSLRAEDTAVYYCAKAHYYARGYFDFWGQGTLVTVSS VL: DIQMTQTPSSVSASVGDRVTITCRASQGISSWLAWYQQKPGKAPKLLIYAASSLQSGVPSRFSGSGSGTDFTLTISSLQPEDFATYYCQQANSFPYTFGQGTKLEIKR | EC50 (read off the curve) [8]: ~0.005 µg/mL; EC50 (read off the curve) [9]: ~0.02 µg/mL; binding result [10]: no binding (tested: about 3300 ng/ml)
3.9 | 0.0026 | 670000 | 0.72 | 0.00014 | 200000 | no binding | antibody 23686 (antibody, human IgG1, kappa, L234A L235A, V domains shown, Fully human IgG1-LALA (L234A/L235A), kappa) VH: EVQLVESGGGLVKPGGSLRLSCAASGFTFSSYSMNWVRQAPGKGLEWVSSISSSSSYIYYADSVKGRFTISRDNAKNSLYLQMNSLRAEDTAVYYCARDEWGLLGFDSWGQGTLVTVSS VL: EIVLTQSPATLSLSPGERATLSCRASQSISNYLAWYQQKPGQAPRLLIYDASNRATGIPARFSGSGSGTDFTLTISSLEPEDFAVYYCQQRTDWPPWTFGQGTKVEIKR | IC50 (read off the curve) [11]: ~0.2 µg/mL; EC50 (read off the curve) [12]: ~0.03 µg/mL; EC50 (read off the curve) [13]: ~0.01 µg/mL; EC50 (read off the curve) [14]: ~0.02 µg/mL; EC50 (read off the curve) [15]: ~0.02 µg/mL; EC50 (read off the curve) [16]: ~0.007 µg/mL; EC50 (read off the curve) [17]: ~0.005 µg/mL; EC50 (read off the curve) [18]: ~0.003 µg/mL; IC50 (read off the curve) [19]: ~0.7 µg/mL; IC50 (read off the curve) [7]: ~0.3 µg/mL
